Test results from patent US20220033784A1 (priority 2020, published 2022).
Like-named read-outs stand apart in the source and are kept apart here.

T1: human intermediate-affinity IL-2 receptor complex, IL-2 CD122/CD132 (β/γ), on cells (human, UniProt P14784 27-551; P31785 23-369)
T1 sequence (looked up) 1: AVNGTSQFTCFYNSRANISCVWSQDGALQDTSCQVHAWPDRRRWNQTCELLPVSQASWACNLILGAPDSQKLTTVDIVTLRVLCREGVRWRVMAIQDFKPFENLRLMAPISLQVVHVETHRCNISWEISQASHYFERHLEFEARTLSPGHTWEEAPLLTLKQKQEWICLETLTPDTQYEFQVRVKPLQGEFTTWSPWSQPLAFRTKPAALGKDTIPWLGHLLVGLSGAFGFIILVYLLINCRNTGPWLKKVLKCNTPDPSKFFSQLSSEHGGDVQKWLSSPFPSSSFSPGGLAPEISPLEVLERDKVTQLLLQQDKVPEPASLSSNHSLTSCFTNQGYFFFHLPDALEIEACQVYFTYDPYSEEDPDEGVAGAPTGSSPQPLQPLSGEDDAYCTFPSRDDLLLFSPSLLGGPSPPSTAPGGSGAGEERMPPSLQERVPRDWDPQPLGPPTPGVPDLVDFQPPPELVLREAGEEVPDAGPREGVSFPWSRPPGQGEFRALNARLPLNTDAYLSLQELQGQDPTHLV
T1 sequence (looked up) 2: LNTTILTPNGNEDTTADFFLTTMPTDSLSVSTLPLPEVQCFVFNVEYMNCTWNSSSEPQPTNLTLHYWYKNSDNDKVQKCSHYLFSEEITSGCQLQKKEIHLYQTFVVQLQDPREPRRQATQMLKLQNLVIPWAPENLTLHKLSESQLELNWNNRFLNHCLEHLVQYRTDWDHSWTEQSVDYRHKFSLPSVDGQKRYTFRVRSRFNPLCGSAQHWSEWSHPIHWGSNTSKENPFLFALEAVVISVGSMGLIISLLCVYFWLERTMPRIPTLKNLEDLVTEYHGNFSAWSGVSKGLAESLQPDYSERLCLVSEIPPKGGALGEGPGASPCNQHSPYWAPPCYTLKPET

T2: human IL-2 receptor beta (IL-2Rβ, CD122), purified soluble (human, UniProt P14784 27-240)
T2 construct: also called hILR2β (CD122); human IL-2Rβ
T2 sequence (looked up): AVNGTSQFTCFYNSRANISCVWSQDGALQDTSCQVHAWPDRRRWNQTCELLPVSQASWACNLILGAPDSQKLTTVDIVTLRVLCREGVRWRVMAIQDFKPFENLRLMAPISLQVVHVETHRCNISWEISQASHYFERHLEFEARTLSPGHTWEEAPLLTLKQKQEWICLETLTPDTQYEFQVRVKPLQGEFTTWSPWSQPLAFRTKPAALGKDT

T3: human high-affinity IL-2 receptor complex, IL-2 CD25/CD122/CD132 (α/β/γ), on cells (human, UniProt P01589 22-272; P14784 27-551; P31785 23-369)
T3 sequence (looked up) 1: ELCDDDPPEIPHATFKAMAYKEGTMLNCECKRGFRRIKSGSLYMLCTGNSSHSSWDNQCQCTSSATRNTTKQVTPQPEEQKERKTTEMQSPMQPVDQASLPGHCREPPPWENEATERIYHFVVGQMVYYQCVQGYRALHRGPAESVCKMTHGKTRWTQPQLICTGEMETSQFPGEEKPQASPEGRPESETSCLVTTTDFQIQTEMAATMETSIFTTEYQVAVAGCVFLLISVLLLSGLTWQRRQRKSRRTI
T3 sequence (looked up) 2: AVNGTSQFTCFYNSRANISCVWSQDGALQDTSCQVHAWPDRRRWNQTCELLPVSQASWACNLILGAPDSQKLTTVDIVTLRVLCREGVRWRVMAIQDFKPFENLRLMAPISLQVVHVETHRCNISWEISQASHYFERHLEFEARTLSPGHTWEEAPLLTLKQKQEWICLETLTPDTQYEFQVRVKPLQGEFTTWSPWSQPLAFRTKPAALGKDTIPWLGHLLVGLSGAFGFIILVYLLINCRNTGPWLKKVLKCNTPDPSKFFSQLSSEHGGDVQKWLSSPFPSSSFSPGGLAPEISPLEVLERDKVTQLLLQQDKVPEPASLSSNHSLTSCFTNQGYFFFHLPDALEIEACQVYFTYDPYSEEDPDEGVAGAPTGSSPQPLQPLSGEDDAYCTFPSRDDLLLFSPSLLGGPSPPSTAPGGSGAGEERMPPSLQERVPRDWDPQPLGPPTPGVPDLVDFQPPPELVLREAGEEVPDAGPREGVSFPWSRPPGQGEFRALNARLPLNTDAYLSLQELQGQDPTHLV
T3 sequence (looked up) 3: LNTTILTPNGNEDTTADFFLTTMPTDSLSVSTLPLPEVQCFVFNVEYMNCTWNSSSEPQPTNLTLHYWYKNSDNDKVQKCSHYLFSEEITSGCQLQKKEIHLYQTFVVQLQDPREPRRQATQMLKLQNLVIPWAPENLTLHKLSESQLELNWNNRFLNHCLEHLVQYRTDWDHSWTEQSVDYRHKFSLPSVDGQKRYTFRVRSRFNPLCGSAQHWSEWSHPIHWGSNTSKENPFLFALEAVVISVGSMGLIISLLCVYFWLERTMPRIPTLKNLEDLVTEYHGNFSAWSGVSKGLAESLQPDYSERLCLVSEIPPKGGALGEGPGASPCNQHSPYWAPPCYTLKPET


Tests used:
[1] = system: HH cells (IL-2 CD122/CD132 (β/γ) receptor complex); assay: pSTAT5 ELISA in HH cells; format: cell-based
Description: (§1) The ability of the IL-2 variants to activate HH cells and iTregs was measured by monitoring relative changes in phosphorylated STAT5 (pSTAT5) in response to treatment of the cells with the IL-2 variants. pSTAT5 is known to be a downstream consequence of IL-2 signaling. HH T cells (ATCC CRL-2105) are a line of T cells that lack the alpha chain of the IL-2 receptor complex, but that contain the beta and gamma chains of the IL-2 receptor complex. iTreg cells were prepared from Fresh Leuko Paks obtained from […] Technologies (CAT #70500.1, Donor #D001003551).
(§2) For IL-2 activation, the HH cells and iTreg cells were plated at 2*10e6 cells/well in 50 ul serum-free RPMI 1640 media (Gibco), and allowed to rest at 37° C. After resting, cells were treated the IL-2 molecules listed above, and cells were then pelleted by centrifugation.
(§3) Following treatment with the IL-2 molecules, cell induction status was evaluated by the InstantOne ELISA pSTAT5 detection kit (Invitrogen).

[2] = system: iTreg cells (IL-2 CD25/CD122/CD132 (α/β/γ) receptor complex); assay: pSTAT5 ELISA in iTreg cells; format: cell-based; details: pSTAT5 level 50% of maximum, InstantOne ELISA; read-out: EC50 iTreg cell
Description: as §1, §2, §3

[3] = target: T1, human intermediate-affinity IL-2 …; assay: cell-based or functional assay
[4] = target: T2, human IL-2 receptor beta (IL-2Rβ, …); assay: SPR (Biacore 8K, 25 C), CD122 amine-coupled on CM5 chip, Fc-IL2 variant as analyte, 1:1 Langmuir fit
[5] = target: T1, human intermediate-affinity IL-2 …; assay: cell-based or functional assay; remark: listed apart in the source
[6] = target: T3, human high-affinity IL-2 receptor …; assay: cell-based or functional assay
[7] = target: T3, human high-affinity IL-2 receptor …; assay: cell-based or functional assay; remark: listed apart in the source
[8] = target: T1, human intermediate-affinity IL-2 …; assay: cell-based or functional assay; remark: listed apart in the source

Row | Molecule | EC50 (read off the curve), pSTAT5 MFI in NK cells of hPBMC [3] | Kd [4] | koff [4] | kon [4] | EC50, pSTAT5 induction in HH T cells (ELISA) [5] | EC50, pSTAT5 induction in iTreg cells (ELISA) [6] | EC50 (read off the curve), pSTAT5 MFI in Treg cells of hPBMC [7] | EC50 (read off the curve), pSTAT5 MFI in NK cells of hPBMC [8] | also measured
1 | Fc-IL2-K43N:Y45T-E62N:K64T (protein) APTSSSTKKTQLQLEHLLLDLQMILNGINNYKNPKLTRMLTFNFTMPKKATELKHLQCLEENLTPLEEVLNLAQSKNFHLRPRDLISNINVIVLELKGSETTFMCEYADETATIVEFLNRWITFCQSIISTLT |  |  |  |  |  |  |  |  | relative selectivity for HH cells vs iTreg cells among the tested molecules ([1]; Table C): greatest relative selectivity; Selectivity HH/iTreg ([1]; higher value = greater selectivity for HH cells): 4.64 × 10^−2; EC50 ([1]; pSTAT5 level 50% of maximum, InstantOne ELISA, read-out: EC50 HH T cell): 0.0662 µM; EC50 [2]: 0.00307 µM
2 | Fc-IL2-R38N:L40T-K43N:Y45T (Fc fusion) GGGGSGGGGSAPTSSSTKKTQLQLEHLLLDLQMILNGINNYKNPKLTNMTTFNFTMPKKATELKHLQCLEEELKPLEEVLNLAQSKNFHLRPRDLISNINVIVLELKGSETTFMCEYADETATIVEFLNRWITFCQSIISTLT | ~8 nM | 3.54 µM | 0.292 s⁻¹ | 82600 M⁻¹ s⁻¹ | 218 nM | 14.1 nM | ~20 nM | ~8 nM | 
3 | Fc-IL2-R38N:L40T-L72N:Q74T (Fc fusion) GGGGSGGGGSAPTSSSTKKTQLQLEHLLLDLQMILNGINNYKNPKLTNMTTFKFYMPKKATELKHLQCLEEELKPLEEVLNNATSKNFHLRPRDLISNINVIVLELKGSETTFMCEYADETATIVEFLNRWITFCQSIISTLT |  |  |  |  |  |  | ~20 nM | ~6 nM | 
4 | Fc-IL2-R38N:L40T-E62N:K64T (Fc fusion) GGGGSGGGGSAPTSSSTKKTQLQLEHLLLDLQMILNGINNYKNPKLTNMTTFKFYMPKKATELKHLQCLEENLTPLEEVLNLAQSKNFHLRPRDLISNINVIVLELKGSETTFMCEYADETATIVEFLNRWITFCQSIISTLT |  |  |  |  |  |  | ~20 nM | ~6 nM | 
5 | Fc-IL2-K43N:Y45T-E62N:K64T (Fc fusion) GGGGSGGGGSAPTSSSTKKTQLQLEHLLLDLQMILNGINNYKNPKLTRMLTFNFTMPKKATELKHLQCLEENLTPLEEVLNLAQSKNFHLRPRDLISNINVIVLELKGSETTFMCEYADETATIVEFLNRWITFCQSIISTLT | ~6 nM |  |  |  | 66.2 nM | 3.07 nM |  |  | 
6 | Fc-IL2-K43N:Y45T-L72N:Q74T (Fc fusion) GGGGSGGGGSAPTSSSTKKTQLQLEHLLLDLQMILNGINNYKNPKLTRMLTFNFTMPKKATELKHLQCLEEELKPLEEVLNNATSKNFHLRPRDLISNINVIVLELKGSETTFMCEYADETATIVEFLNRWITFCQSIISTLT | ~6 nM | 2.62 µM | 0.235 s⁻¹ | 89900 M⁻¹ s⁻¹ | 65.2 nM | 4.49 nM |  |  | 
